Source: publication PMC7596504, “Molecular mechanism of the MORC4 ATPase activation” (Nature Communications, 2020)

Experiments:
NCP147 = experiment: EMSA with NCP147; type: binding; conditions: 5 nM 147 bp fluorescein-labeled NCP, pH 7.5, 4 °C
Method: EMSAs were performed by mixing increasing amounts of MORC4 ATPase with 5 nM 147 bp fluorescein-labeled NCP in 25 mM Tris-HCl pH 7.5, 75 mM NaCl, 25 mM Tris-HCl pH 7.5, 0.005% Tween 20, and 10% glycerol buffer in a 12 μL reaction volume. Each sample was incubated at 4 °C for 5 min and then loaded onto a 5% native polyacrylamide gel. Electrophoresis was performed in 0.3× Tris-borate-EDTA (TBE) at 300 V for 90 min. Fluorescein fluorescence images were acquired with a Typhoon Phosphor Imager.

MORC4 [1] = molecular target: T1, MORC4 (Homo sapiens, UniProt Q8TE76); experiment: ATPase activity assay (EnzChek Phosphate Assay Kit); type: biochemical; parameters: Rate of ATP hydrolysis: unit not given here; conditions: Supp. Fig. 1
T1 construct: the ATPaseCW cassette (aa 29–486) of human MORC4 (Q8TE76); GST (cleaved yes); made in house; host or cells: E. coli Rosetta2 (DE3) pLysS or BL21 (DE3) RIL
T1 sequence (Q8TE76 1-937): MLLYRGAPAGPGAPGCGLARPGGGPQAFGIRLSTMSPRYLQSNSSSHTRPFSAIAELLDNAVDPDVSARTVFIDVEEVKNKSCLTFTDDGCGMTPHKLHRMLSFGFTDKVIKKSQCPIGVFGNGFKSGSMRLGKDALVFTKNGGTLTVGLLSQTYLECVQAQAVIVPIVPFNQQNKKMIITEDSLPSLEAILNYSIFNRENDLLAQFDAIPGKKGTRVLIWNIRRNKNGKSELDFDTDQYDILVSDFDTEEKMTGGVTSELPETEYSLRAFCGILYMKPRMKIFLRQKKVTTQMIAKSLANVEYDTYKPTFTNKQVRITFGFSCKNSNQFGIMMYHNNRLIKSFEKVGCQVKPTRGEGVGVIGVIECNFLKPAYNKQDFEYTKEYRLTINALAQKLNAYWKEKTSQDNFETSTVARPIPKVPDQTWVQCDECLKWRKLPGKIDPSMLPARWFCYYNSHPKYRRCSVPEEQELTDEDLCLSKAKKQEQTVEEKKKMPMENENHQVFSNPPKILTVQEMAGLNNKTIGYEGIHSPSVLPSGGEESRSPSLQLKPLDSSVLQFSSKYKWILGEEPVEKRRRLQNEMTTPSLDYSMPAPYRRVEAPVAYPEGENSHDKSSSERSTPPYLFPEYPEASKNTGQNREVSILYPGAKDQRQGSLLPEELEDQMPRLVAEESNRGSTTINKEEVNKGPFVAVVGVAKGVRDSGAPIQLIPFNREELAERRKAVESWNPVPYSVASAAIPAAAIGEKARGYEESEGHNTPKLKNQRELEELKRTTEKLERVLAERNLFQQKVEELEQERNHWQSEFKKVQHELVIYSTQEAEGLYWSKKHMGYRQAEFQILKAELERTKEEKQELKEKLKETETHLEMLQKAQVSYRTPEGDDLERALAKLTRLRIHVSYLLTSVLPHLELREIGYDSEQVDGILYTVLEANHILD
Method: (§1) To determine whether MORC4 is catalytically active, we produced the ATPase domain of human MORC4 and examined its ability to hydrolyze ATP in enzymatic assays (Fig. 1a–c). Following incubation of the ATPase domain with ATP, 2-amino-6-mercapto-7-methylpurine ribonucleoside and nucleoside phosphorylase, the release of inorganic phosphate generated by the hydrolysis of ATP to ADP was monitored by measuring an increase in absorbance at 360 nm.
(§2) The ATPase assays were performed using the EnzChek Phosphate Assay Kit (Invitrogen, item # E6646). The reactions were carried out on 1.0 µM of MORC4 His-ATPase or ATPaseCW (WT and mutants), in the presence and absence of 1 µM 601 DNA or 50 µM of unmodified H3 or H3K4me3 peptide (aa 1–12 of H3) in a buffer containing 50 mM Tris-HCl (pH 7.5), 150 mM NaCl, 1 mM MgCl2, 0.1 mM sodium azide, 200 µM MESG, and 1 U of PNP. In assay with the nucleosome, 0.5 µM of MORC4 ATPaseCW and 0.5 µM NCP167 (Activemotif) were used. The reaction was started by adding 2 mM ATP to the mixture at room temperature, and the release of inorganic phosphate was monitored by measuring the absorbance at 360 nm on a Nanodrop 2000c spectrophotometer (Thermo Scientific). In the presence of inorganic phosphate, produced by the hydrolysis of ATP to ADP, MESG is enzymatically converted to ribose 1-phosphate and […] by PNP, resulting in a shift in the wavelength absorbance from 330 nm for MESG to 360 nm for the product. The rate of ATP self-hydrolysis was measured in parallel. Error was calculated as the S.D. of at least three separate experiments (two in Fig. 4j).

MORC4 [2] = experiment: as above; type: biochemical, human; parameters: Rate of ATP hydrolysis: unit not given here
Method: as §1, §2

O’RangeRuler 5 bp ladder = experiment: EMSA with DNA ladder (minimum DNA length); type: binding; conditions: 5 bp ladder 50 ng, pH 7.5, 150 mM NaCl
Method: EMSA experiments were performed essentially as described. In brief, increasing amounts of WT or mutant CW or ATPaseCW cassette of MORC4 were incubated with 147 bp 601 DNA (5 pmol) or 50 ng of O’RangeRuler 5 bp ladder (Thermo Scientific) in a DNA-binding buffer containing 20 mM Tris-HCl (pH 7.5), 150 mM NaCl, 2.5 mM MgCl2, and 2 mM DTT for 0.5 h on ice. The reaction mixtures were loaded on 5% native polyacrylamide gels, and electrophoresis was performed in 0.2× Tris-borate-EDTA (TBE) buffer at 100 V for 1.2 h on ice. Gels were stained with SYBR Gold (Invitrogen).

B1: ATPaseCW: ATPaseCW cassette (aa 29–486) of human MORC4 (Q8TE76) (protein)
chain: GIRLSTMSPRYLQSNSSSHTRPFSAIAELLDNAVDPDVSARTVFIDVEEVKNKSCLTFTDDGCGMTPHKLHRMLSFGFTDKVIKKSQCPIGVFGNGFKSGSMRLGKDALVFTKNGGTLTVGLLSQTYLECVQAQAVIVPIVPFNQQNKKMIITEDSLPSLEAILNYSIFNRENDLLAQFDAIPGKKGTRVLIWNIRRNKNGKSELDFDTDQYDILVSDFDTEEKMTGGVTSELPETEYSLRAFCGILYMKPRMKIFLRQKKVTTQMIAKSLANVEYDTYKPTFTNKQVRITFGFSCKNSNQFGIMMYHNNRLIKSFEKVGCQVKPTRGEGVGVIGVIECNFLKPAYNKQDFEYTKEYRLTINALAQKLNAYWKEKTSQDNFETSTVARPIPKVPDQTWVQCDECLKWRKLPGKIDPSMLPARWFCYYNSHPKYRRCSVPEEQELTDEDLCLSKAKKQE
modifications: left off: GST, end not stated, cleaved
B1 was tested, and the “binding to NCP147 in EMSA” value (NCP147) was “bound to NCP147”, the “Rate of ATP hydrolysis” value (MORC4 [1]; 0.5 µM MORC4 ATPaseCW + 0.5 µM NCP167, mean of 3) was 0.468 and the “Rate of ATP hydrolysis” value (MORC4 [1]; 0.5 µM MORC4 ATPaseCW + 0.5 µM NCP167, replicate 1) was 0.5696. The “Rate of ATP hydrolysis” value (MORC4 [1]; 0.5 µM MORC4 ATPaseCW + 0.5 µM NCP167, replicate 2) was 0.408, the “Rate of ATP hydrolysis” value (MORC4 [1]; 0.5 µM MORC4 ATPaseCW + 0.5 µM NCP167, replicate 3) was 0.4265 and the “Rate of ATP hydrolysis” value (MORC4 [1]; 0.5 µM MORC4 ATPaseCW, without NCP167, mean of 3) was 0.2339. The “Rate of ATP hydrolysis” value (MORC4 [1]; 0.5 µM MORC4 ATPaseCW, without NCP167, replicate 1) was 0.309, the “Rate of ATP hydrolysis” value (MORC4 [1]; 0.5 µM MORC4 ATPaseCW, without NCP167, replicate 2) was 0.1285 and the “Rate of ATP hydrolysis” value (MORC4 [1]; 0.5 µM MORC4 ATPaseCW, without NCP167, replicate 3) was 0.2641. For the same molecule, the “Rate of ATP hydrolysis” value (MORC4 [2]; + H3K4me3 + 601 DNA, Fig. 1c, mean of 3) was 0.3353, the “Rate of ATP hydrolysis” value (MORC4 [2]; + H3K4me3 + 601 DNA, Fig. 1c, replicate 1) was 0.3507 and the “Rate of ATP hydrolysis” value (MORC4 [2]; + H3K4me3 + 601 DNA, Fig. 1c, replicate 2) was 0.3597. For the same molecule, the “Rate of ATP hydrolysis” value (MORC4 [2]; + H3K4me3 + 601 DNA, Fig. 1c, replicate 3) was 0.2954, the “Rate of ATP hydrolysis” value (MORC4 [2]; + H3un + 601 DNA, Fig. 1c, mean of 3) was 0.3154 and the “Rate of ATP hydrolysis” value (MORC4 [2]; + H3un + 601 DNA, Fig. 1c, replicate 1) was 0.2842. The “Rate of ATP hydrolysis” value (MORC4 [2]; + H3un + 601 DNA, Fig. 1c, replicate 2) was 0.3368, the “Rate of ATP hydrolysis” value (MORC4 [2]; + H3un + 601 DNA, Fig. 1c, replicate 3) was 0.3251 and the “Rate of ATP hydrolysis” value (MORC4 [2]; no DNA, no peptide, 1.0 µM protein, 2 mM ATP, pH 7.5, room temperature, absorbance 360 nm, Fig. 1b,c, mean) was 0.09309. For the same molecule, the “Rate of ATP hydrolysis” value (MORC4 [2]; no DNA, no peptide, Fig. 1b,c, replicate 1) was 0.08409, the “Rate of ATP hydrolysis” value (MORC4 [2]; no DNA, no peptide, Fig. 1b,c, replicate 2) was 0.08589 and the “Rate of ATP hydrolysis” value (MORC4 [2]; no DNA, no peptide, Fig. 1b,c, replicate 3) was 0.1093. The “minimum DNA length for appreciable interaction” value (O’RangeRuler 5 bp ladder) was at least 30 bp.
